# Results: the nanobody polyreactivity screen of Harvey et al. (2022)
# Experiment: yeast display, Sf9 membrane polyspecificity reagent, FACS + sequencing; frameworks hold sequencing errors
# Outline: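 Polyreactivity labels are assigned by the sorting gate from which each nanobody was recovered. The gates were low and high (top ~1%), set on anti-HA fluorescence for expression and streptavidin fluorescence for reagent binding. Before sorting, galactose-induced (36–48 hours) yeast display cells were stained for 1 hour at 4 °C with 10% biotinylated, detergent-solubilized Sf9 membrane reagent.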
row,Sequence,polyreactivity (PSR sort gate)
1,QVQLVESGGGLVQAGGSLRLSCAASGRIFQYYAMGWYRQAPGKERELVASISGRGGRTYYADSVKGRLTISRDNAKNTVYLQMNSLKPEDTAVYYCNAVFSTIRYIRSYNYWGQGTQVTVSS,high polyreactivity
2,QVQLVESGGGLVQAGGSLRLSCAASGRIFQYYAMGWYRQAPGKERELVATITSTGSTYYADSVKGRFTISRDNAKNTVYLQMNSLKPEDTAVYYCNADPWGIYETFGDHDYWGQGTQVTVSS,low polyreactivity
3,QVQLVESGGGLVQAGGSLRLSCAASGRIFQYYTIGWYRQATGKERELVAAIRSSGGITYYADSVKGRFTISRDNAKYTVYLQMNSLKPEDTAVYYCAARWYRSKYDYWGQGTQVTVSS,high polyreactivity
4,QVQLVESGGGLVQAGGSLRLSCAASGRIFQYYTMGWNRQAPGKERELVAAITYSGGDTRYADSVKGRFTISRDTAKNTVYLQMNSLKPEDTAVYYCAADYFDQYQYGVWTYGYWGQGTQVTVSS,low polyreactivity
5,QVQLVESGGGLVQAGGSLRLSCAASGRIFQYYTMGWSRQAPGKERELVAAITRSGGSTYYADSVKGRFTISRDNAKNTVYLQMNSLKPEDTAVYYFNADTRVKLPWYYTFDYLGQGTQVTVSS,low polyreactivity
6,QVQLVESGGGLVQAGGSLRLSCAASGRIFQYYVMGRYRQAPGKEREWVAAMTSGGGTKYADSVKGRFTISRDNEKNTVYLQMNSLKPEDTAVYYCAAAWFDQYSRYDYWGQGSQVTVSS,low polyreactivity
7,QVQLVESGGGLVQAGGSLRLSCAASGRIFRANTMGWYRQAPGKERELVAVITASGGSTYYADSVKGRFTISRDNAKNTVYLQMNSLKPEDTAVYYCNVRWSPAGTGLLDYWGQGTQVTVSS,high polyreactivity
8,QVQLVESGGGLVQAGGSLRLSCAASGRIFRAYAMGWYRQAPGKERELVAAISSRGGSTYYADSVKGRFTISRDNAKNTVYLQMNSLKPEDTAVYYCNVDTPFREGSYDYWGQGTQVSVSS,high polyreactivity
9,QVQLVESGGGLVQAGGSLRLSCAASGRIFRAYAMGWYRQAPGKERELVAAISYRGGSTYYADSVKGRFTISRDNAKNTVYLQMNSLKPEDTAVYYCAADSDRSVWIYGYSGQGTQVTVSS,low polyreactivity
10,QVQLVESGGGLVQAGGSLRLSCAASGRIFRAYAMGWYRQAPGKERELVAAITSGVSTNYADSVKGRFTISRDNAKNTVYLQMNSLKPEDTAVYYCAADIYVIYEYWGQGTQVTVSS,low polyreactivity
11,QVQLVESGGGLVQAGGSLRLSCAASGRIFRDYDMGWYRKAPGKEWELVAAITYRGGSTYYADSVKGRFTISRDNAKNTVYLQINSLKPEDTAVYYCAAGSRSPHWYTRELDYWVQGTQVTVSS,low polyreactivity
12,QVQLVESGGGLVQAGGSLRLSCAASGRIFRFNAMGWYRQAPGKERELVAAITGSGGTTFYADSVKGRFTLSRDNAKNTVYLQMNSLKPEDTAVYYCNTLGNWRPVYNQPRYEYWGQGTQVTVSS,high polyreactivity
13,QVQLVESGGGLVQAGGSLRLSCAASGRIFRFNAMGWYRQAPGKERELVAAITSGVRTNYADSVKGRFTISRDNAKNTVYLQMNSLKPEDTAVYYCAASRHYPGYRRYDYWGQGTQVTVSS,high polyreactivity
14,QVQLVESGGGLVQAGGSLRLSCAASGRIFRFYAMGWYRKAPGKERELVAAITRNVGSTFYADSVKGRFTISRDNAKKTVYLQMNSLKPADTAVYYCAAESDYYYRYTFDYWGQGTQVTVSS,low polyreactivity
15,QVQLVESGGGLVQAGGSLRLSCAASGRIFRFYAMGWYRQAPGKERELVADISRRGGSTYYADSVKGRFTISRDNAKNTVYLQMNSLKPEDTAVYYCNARWYRTGSTYHEDYWGQGTQVTVSS,high polyreactivity
16,QVQLVESGGGLVQAGGSLRLSCAASGRIFRFYAMGWYRQAPGKERELVASISSTGGSTYYADSVKGRFTISRDNAKNTVYLQMNSLKPEDTAVYYCNTVYGYVTTYGYWGQGTQVTVSS,high polyreactivity
17,QVQLVESGGGLVQAGGSLRLSCAASGRIFRFYVMGWYRQAPGKERELVAAISDSSPSTYYADSVKGRFTISRDNAKKTVYLQMNSLKPEDTAVYYCAARYPPYWSYDYDYWGQGTQVTVSS,low polyreactivity
18,QVQLVESGGGLVQAGGSLRLSCAASGRIFRGNAMGWYRQAPGKERQLVADINRSGGSTYYADSVKGRFTISRDNAKNTVYLQMNSLKPEDTAVYYCNAKYRVPYAVGGDYGYWGQGTQVTVSS,high polyreactivity
19,QVQLVESGGGLVQAGGSLRLSCAASGRIFRGNTMGWYRQAPGKERELVAAITRGGSTSYADSVKGRFTISRDNAKNTVNLQMNSLKPEDTAVYYCATRTHGEGTRRDSWGQGTQVTVSS,low polyreactivity
20,QVQLVESGGGLVQAGGSLRLSCAASGRIFRGNTMGWYRQAPGKERELVATINGRGGSTYYADSVKGRFTISRDNAKNTVYLQMNSLKPVDTAVYYCAARRGYPRFEYWGQGTQVTVSS,high polyreactivity
21,QVQLVESGGGLVQAGGSLRLSCAASGRIFRGYAMGWSRQAPGKERELVAAITSRGGSTYADSVKGRFTISRDNAKNTVYLQMNSLKPEDTAVYYCNAGYRADSSKLVFRGYPRYDYWGQGTQVTVSS,low polyreactivity
22,QVQLVESGGGLVQAGGSLRLSCAASGRIFRGYAMGWYRQAPGKEREFVAAITKNGGSTYYADSVKGRFTISRDNAKNTVYLQMNSLKPEDTAVYYCAAGGPSTLDDYWGQGTQVTVSS,low polyreactivity

row,Sequence,polyreactivity (PSR sort gate)
1,QVQLVESGGGLVQAGGSLRLSCAASGRIFRGYAMGWYRQAPGKEREFVADITRSGGSTYYADSVKGRFTISRDNAKNTVYLQMNSLKPEDTAVYYCAREWYQYSPYHRFDYWGQGTQVTVSS,high polyreactivity
2,QVQLVESGGGLVQAGGSLRLSCAASGRIFRGYAMGWYRQAPGKERELVAAISYSGGTTYYADSVKGRFTISRDNAKNTVYLQMNSLKPEDTAVYYCNVDADYESQWLSVGYDYWGQGTQVTVSS,low polyreactivity
3,QVQLVESGGGLVQAGGSLRLSCAASGRIFRGYAMGWYRQAPGKERELVAAITKRGGSTYYADSVKGRFTISRDNAKNTVYFQMNSLKPEDTAVYYCAAYLPGWELREYGYWGQGTQVTVSS,high polyreactivity
4,QVQLVESGGGLVQAGGSLRLSCAASGRIFRGYAMGWYRQAPGKERELVAGISSGDNTYYADSVKGRFTISRDNAKNTVYLQMNSLKPEDTAVYYCNADHVYAVDYDYWGQGTQVTVSS,low polyreactivity
5,QVQLVESGGGLVQAGGSLRLSCAASGRIFRGYGMGWYRQAPGKERELVAAITSRGGSTYYADSVKGRFTISRDNAKYTVYLQMNSLKPEDTAVYYCNRDFNHRPLQSPKRPPKLGYWGQGTQVTVSS,high polyreactivity
6,QVQLVESGGGLVQAGGSLRLSCAASGRIFRGYTMGWYRQAPGKEREFVAAITANGGRTYYADSVKGRFTISRDNAKNTVYLKMNSLKPEDTAVYYCNARTYTYRGSFDYWVQGTQVTVSS,high polyreactivity
7,QVQLVESGGGLVQAGGSLRLSCAASGRIFRHKTLGWYRQAPGKEREMVAGITASGGDTYYADSVKGRFTISRDNAKNTVYLQMNSLKPEDTAVYYCATSQYGYRSWPGLYYWGQGTQVTVSS,low polyreactivity
8,QVQLVESGGGLVQAGGSLRLSCAASGRIFRINAMGWYRPAPGKERELVAAITRGGSTNYADSVKGRFTISRDNAKNTVYLQMNSLKPEDTAVYYCAADVSTYYYPGWFKLYLFDYWGQGTQVTVSS,high polyreactivity
9,QVQLVESGGGLVQAGGSLRLSCAASGRIFRKNVMGWYRQAPGKERELVATIRTGGTTNYADSVKGRFTISRDNAKNTVYLQMNSLKPEDTAVYYCAADRGGRAGFDYWGQGTQVTVSS,high polyreactivity
10,QVQLVESGGGLVQAGGSLRLSCAASGRIFRLNAMGWYRQAPGKERELVAAITVSDSSTYADSVKGRFTISRDNAKNTVYLQMNSLKPEDTAVYYCNRDTYTEYAHSWRGWSVIFDYWGQGTQVTVSS,high polyreactivity
11,QVQLVESGGGLVQAGGSLRLSCAASGRIFRLYAMGWYRQAPGKERELVAAISFSGSRTYYADSVKGRFTISRDNAKNNVYLQMNSLQPEDTAVYYCNKDHYVRYGLDYWGQGTQVTVSS,high polyreactivity
12,QVQLVESGGGLVQAGGSLRLSCAASGRIFRLYAMGWYSQEPGKDRELVATITSGGTYYADSVKGRFTISRDNAKNTVYLQMISLSPEDTAVYYCTARRRLRYDFWGQGTQVTVSS,low polyreactivity
13,QVQLVESGGGLVQAGGSLRLSCAASGRIFRPYAMGWYRQAPGKERELVAAISVSGVITYYADSVKGRFTISRDNAKNTVYLQMISLKPEDTAVYYCATDYTPRRWGRLYDYWGQGTQVTVSS,low polyreactivity
14,QVQLVESGGGLVQAGGSLRLSCAASGRIFRPYAMGWYRQAPGKERELVATITGSGGTTYYADSVKGRFTISRDNAKNSVYFQMNSLKPEDTAVYYCNVDPRSDIIPMDYWGQGTQVTVSS,low polyreactivity
15,QVQLVESGGGLVQAGGSLRLSCAASGRIFRPYTMGWYRQAPGKERELVAANSWRGGSTYYADSVKVRFTISLDNAKNTVYLLINSLKPEATAVYYCATYVKVIRTAGTRPKMGYWGQVTQVTVSS,high polyreactivity
16,QVQLVESGGGLVQAGGSLRLSCAASGRIFRRNTMGWSRQAPGKERELVAAITSSGGSTYADSVKGRFTISRDNAKKTVYLQMNSLKPEDTAVYYCATYVAYHRGYRTYDHWGQGTQVTVSS,low polyreactivity
17,QVQLVESGGGLVQAGGSLRLSCAASGRIFRRNTMGWYRQAPGKERELVAAITSSGGSTYADSVKGRFTISRDNAKNTVYLQMNSLKPEDTAVYYCAAVRLYRYDYWGQGTQVTVSS,low polyreactivity
18,QVQLVESGGGLVQAGGSLRLSCAASGRIFRRYAMGWYRQAPGKEREFVAAITDGSTYYADSVKGRFTISRDNAKNTVYLQMNSLKPEDTAVYYCATQYGWSYSRRFYYWGQGTQVTVSS,high polyreactivity
19,QVQLVESGGGLVQAGGSLRLSCAASGRIFRRYAMGWYRQAPGKERELVAAITRSGGSTYYADSVKGRFTISRDNAKNTVYLQMNSLKPEDTAVYYCAARQVGRYYYLSRYYYWGQGTQVTVSS,high polyreactivity
20,QVQLVESGGGLVQAGGSLRLSCAASGRIFRRYAMGWYRQAPGTERELVAAITASGGITYYADSVKGRFTISRDNAKNTVYLQMNSLKPEDTAVYYCAARGSSGYDYWGQGTQVTVSS,high polyreactivity
21,QVQLVESGGGLVQAGGSLRLSCAASGRIFRSYAMGWYREAPGKERELVAAISSGGSTNYADSVKGRFTISRDNAKNTVYLQLNSLKPEDTAVYYCAAELWAYTWYWHSDYWGQGTQVTVSS,low polyreactivity
